Results: patent US20190202925A1 (OPI VI IP HOLDCO, published 2019)
Like-named read-outs stand apart in the source and are kept apart here.

Key:
[1] = target: T1, human TNFR2 on cells (human, UniProt P20333 23-461); test: cell-based or functional assay
T1 sequence (looked up): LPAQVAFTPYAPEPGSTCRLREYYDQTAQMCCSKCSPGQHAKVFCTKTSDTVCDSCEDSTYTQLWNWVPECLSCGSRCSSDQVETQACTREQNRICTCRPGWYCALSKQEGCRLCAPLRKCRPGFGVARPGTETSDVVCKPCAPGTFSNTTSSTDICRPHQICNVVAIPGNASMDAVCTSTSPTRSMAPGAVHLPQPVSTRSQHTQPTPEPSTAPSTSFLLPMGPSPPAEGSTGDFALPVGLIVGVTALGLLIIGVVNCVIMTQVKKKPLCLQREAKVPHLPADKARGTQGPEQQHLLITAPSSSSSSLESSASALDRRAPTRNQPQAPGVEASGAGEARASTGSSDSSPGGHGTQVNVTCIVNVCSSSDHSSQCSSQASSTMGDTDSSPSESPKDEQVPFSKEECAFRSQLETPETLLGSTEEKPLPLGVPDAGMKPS

[2] = target: T2, soluble human TNFR2 (human, UniProt P20333 23-257); test: competition ELISA: plate-bound soluble TNFR2, antibody titrated against constant biotinylated TNFα, streptavidin-HRP, A450
T2 construct: also called soluble TNFR2
T2 sequence (looked up): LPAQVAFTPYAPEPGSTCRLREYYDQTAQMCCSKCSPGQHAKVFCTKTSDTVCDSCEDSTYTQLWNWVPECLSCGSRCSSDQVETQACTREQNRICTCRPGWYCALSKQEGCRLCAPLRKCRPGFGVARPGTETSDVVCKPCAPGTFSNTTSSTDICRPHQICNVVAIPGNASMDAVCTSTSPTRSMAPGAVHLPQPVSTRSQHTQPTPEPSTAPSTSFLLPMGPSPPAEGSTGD
From the text: (§1) Soluble human TNFR2 was coated on Nunc-Immuno™ plates. […] IC₅₀ values are reported in nM.
(§2) IC₅₀ values are reported in nM.

[3] = target: T2, soluble human TNFR2; test: competition ELISA (FIG. 2), plate-bound soluble human TNFR2, constant biotinylated TNFα as competitor
From the text: as §1

[4] = target: T3, monomeric human TNFR2 extracellular domain (human, UniProt P20333 23-257); test: BLI (Octet Red 96), antibody captured on Fc biosensor, monomeric TNFR2 ECD in solution, 1:1 model
T3 construct: extracellular domain; Analyte in the Octet experiments; also called human TNFR2 ECD
T3 sequence (looked up): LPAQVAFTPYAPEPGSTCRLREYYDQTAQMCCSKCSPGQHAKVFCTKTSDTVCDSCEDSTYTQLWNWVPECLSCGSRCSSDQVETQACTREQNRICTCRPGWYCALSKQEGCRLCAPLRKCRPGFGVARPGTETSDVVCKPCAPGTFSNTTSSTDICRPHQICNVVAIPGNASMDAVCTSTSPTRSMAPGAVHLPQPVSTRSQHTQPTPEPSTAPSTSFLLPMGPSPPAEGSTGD
Description: (§3) Analysis of binding to the human and cynomolgus TNFR2 ECD was performed using an Octet Red 96 Instrument™ (ForteBio). […] The experiments were performed using five steps: (1) baseline acquisition (60 s); (2) antibody loading on to anti-human or anti-mouse Fc biosensors (120 s); (3) second baseline acquisition (60 s); (4) association of interacting monomeric human or cynomolgus TNFR2 ECD protein for kₒₙ measurement (120 s); and (5) dissociation of interacting monomeric human or cynomolgus TNFR2 ECD for koff measurement (240-3600 s).
(§4) The interacting monomeric human or cynomolgus ECD was used at 5-6 concentrations of a 3-fold concentration series. The data were analyzed using Octet Data Analysis Software 9.0™ (ForteBio) and fit to the 1:1 binding model. The equilibrium dissociation constants (Kd) were calculated by the ratio of […].

[5] = target: T4, monomeric cynomolgus TNFR2 extracellular domain (cynomolgus monkey, UniProt A0A2K5VET2 132-366); test: as above
T4 construct: extracellular domain; Analyte in the Octet experiments; also called cynomolgus TNFR2 ECD; Cyno TNFR2
T4 sequence: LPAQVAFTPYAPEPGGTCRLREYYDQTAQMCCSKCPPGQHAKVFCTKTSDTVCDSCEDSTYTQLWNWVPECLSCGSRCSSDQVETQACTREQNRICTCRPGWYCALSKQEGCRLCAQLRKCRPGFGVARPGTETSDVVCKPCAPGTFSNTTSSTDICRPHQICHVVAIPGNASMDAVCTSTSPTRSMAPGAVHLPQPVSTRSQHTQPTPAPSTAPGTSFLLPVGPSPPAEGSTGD
Description: as §3, §4

[6] = target: T2, soluble human TNFR2; test: competition ELISA: plate-bound soluble human TNFR2, competitor biotinylated TNFα, streptavidin-HRP, A450
Description: (§5) Soluble human TNFR2 (Sino Biological, 10417-H08H) or cynomolgus TNFR2 (Sino Biological, 90102-C08H) was coated on Nunc-Immuno™ plates at 0.1 μg/ml, 0.5 ug/ml, 1 μg/ml, and 5 μg/ml. […] Plates were developed using TMB and stopped with 3 M HCl.

[7] = target: T2, soluble human TNFR2; test: competition ELISA, plate-bound soluble human TNFR2, biotinylated TNFα as competitor
Description: as §5, §2

[8] = target: T5, soluble cynomolgus TNFR2 (cynomolgus, UniProt A0A2K5VET2 132-366); test: competition ELISA: plate-bound soluble cynomolgus TNFR2, competitor biotinylated TNFα, streptavidin-HRP, A450
T5 sequence: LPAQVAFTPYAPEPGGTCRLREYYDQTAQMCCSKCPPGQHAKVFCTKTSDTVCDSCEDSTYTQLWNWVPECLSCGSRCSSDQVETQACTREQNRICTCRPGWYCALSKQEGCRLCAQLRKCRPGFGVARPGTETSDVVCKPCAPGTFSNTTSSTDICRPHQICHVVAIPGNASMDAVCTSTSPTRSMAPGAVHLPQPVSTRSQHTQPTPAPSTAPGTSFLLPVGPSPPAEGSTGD
Description: as §5

[9] = target: T3, monomeric human TNFR2 extracellular …; test: BLI (Octet Red 96), Human TNFR2 Kd (1-1)
[10] = target: T5, soluble cynomolgus TNFR2; test: competition ELISA: plate-bound soluble cynomolgus TNFR2, competitor biotinylated TNFα; IC50 relative to unlabelled TNFα = 1.00
Description: as §5, §2

[11] = target: T2, soluble human TNFR2; test: competition ELISA: plate-bound soluble human TNFR2, competitor biotinylated TNFα; IC50 relative to unlabelled TNFα = 1.00
Description: as §5, §2

[12] = target: T5, soluble cynomolgus TNFR2; test: competition ELISA, plate-bound soluble cynomolgus TNFR2, biotinylated TNFα as competitor
Description: as §5, §2

[13] = target: T5, soluble cynomolgus TNFR2; test: competition ELISA: plate-bound soluble cynomolgus TNFR2, competitor biotinylated TNFα, streptavidin-HRP, A450; remark: listed apart in the source
Description: as §5

[14] = target: T5, soluble cynomolgus TNFR2; test: competition ELISA: plate-bound soluble cynomolgus TNFR2, competitor biotinylated TNFα; IC50 relative to unlabelled TNFα = 1.00; remark: listed apart in the source
Description: as §5

[15] = target: T2, soluble human TNFR2; test: competition ELISA: plate-bound soluble human TNFR2, competitor biotinylated TNFα; IC50 relative to unlabelled TNFα = 1.00; remark: listed apart in the source
Description: as §5

[16] = target: T2, soluble human TNFR2; test: competition ELISA (FIG. 1), plate-bound soluble human TNFR2, constant biotinylated TNFα as competitor
From the text: as §1

[17] = target: T2, soluble human TNFR2; test: competition ELISA: plate-bound soluble human TNFR2, competitor biotinylated TNFα, streptavidin-HRP, A450; remark: listed apart in the source
Description: as §5

B1: SBT-001 (antibody, V domains shown)
VH: EVQLQQSGAELVKPGASVKISCKASGYTFTDYNMDWVKQSHGKSLEWIGDINPNYESTSYNQKFKGKATLTVDKSSSTAYMEVRSLTSEDTAVFYCARDKGWYFDVWGAGTTVTVSS
VL: ENVLTQSPAIMSASLGEKVTMSCRASSSVKNMYWYQQKSDASPKLWIYYTSNLAPGVPARFSGSGSGNSYSLTISSMEGEDAATYYCQQFTSSPYTFGGGTKLELK
notes: Parental mouse antibody; also called mouse SBT-001
With B1 the “IC50 (µg/mL) (with pre-incubation); rescue of Jurkat H6 cells from 2 ng/mL TNFα, luminescence” value [1] was 3.03 µg/mL, the “IC50 (µg/mL) (without pre-incubation); rescue of Jurkat H6 cells from 2 ng/mL TNFα, luminescence” value [1] was 2.53 µg/mL and the IC50 [2] was 8.27 nM. The IC50 [3] was 9.04 nM, the Kd [4] was 2.7 nM and the Kd [5] was 53.1 nM.

B2: SBT-002 (antibody, V domains shown)
VH: QVTLKESGPGILQPSQTLSLTCSFSGFSLSTSGMGVGWIRQPSGKGLEWLAHIWWDDDKFYNPSLKSQLTISKDTSRNQVFLKLTSVVTADTATYYCARLTGTRYFDYWGQGTTLTVSS
VL: DVQMTQSPSSLSASLGGKVTITCKASQDINKFIAWYQHKPGKGPRLLIHYTSTLQPGIPSKFSGSGSGRDYSFSISNLEPEDIATYYCLQYGNLWTFGGGTKLEIT
notes: Parental mouse antibody; also called mouse SBT-002
For B2, the IC50 [6] was 5.77 nM, the “Average Relative IC50” value [7] was 2.19 nM and the IC50 [8] was 8 nM. The Kd [9] was 1.3 nM, the IC50 [3] was 5.08 nM and the “Relative IC50” value [10] was 2.04 nM. The “Relative IC50” value [11] was 2.17 nM, the “Average Relative IC50” value [12] was 1.98 and the IC50 [13] was 19.6 nM. For the same binder, the “Relative IC50” value [14] was 2.13 nM, the “Relative IC50” value [15] was 2.33 nM and the Kd [4] was 1.3 nM. For the same binder, the Kd [5] was 0.44 nM, the IC50 [16] was 5.12 nM and the IC50 [17] was 12.1 nM.
